Measurements: patent US20240100159A1, “USE OF IL-7R-ALPHA-GAMMA AGONIST PEPTIDES IN CELL MANUFACTURING” (MEDIKINE, INC., priority 2022, published 2024)
Ends that are not written are not given here.

T1: hu-IL-7Rγc subunit (human, UniProt P31785 23-262, limits assumed)
T1 construct: also called human Rγc subunit; common γc receptor
T1 sequence (looked up): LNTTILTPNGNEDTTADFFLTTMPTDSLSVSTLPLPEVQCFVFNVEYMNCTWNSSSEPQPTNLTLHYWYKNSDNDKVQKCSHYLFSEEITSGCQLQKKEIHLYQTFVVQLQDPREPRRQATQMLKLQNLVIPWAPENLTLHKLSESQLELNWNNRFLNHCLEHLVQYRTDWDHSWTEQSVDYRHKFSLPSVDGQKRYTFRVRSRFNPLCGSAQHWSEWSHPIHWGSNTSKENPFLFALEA

T2: hu-IL-7Rγc subunit (human), P31785
T2 chain: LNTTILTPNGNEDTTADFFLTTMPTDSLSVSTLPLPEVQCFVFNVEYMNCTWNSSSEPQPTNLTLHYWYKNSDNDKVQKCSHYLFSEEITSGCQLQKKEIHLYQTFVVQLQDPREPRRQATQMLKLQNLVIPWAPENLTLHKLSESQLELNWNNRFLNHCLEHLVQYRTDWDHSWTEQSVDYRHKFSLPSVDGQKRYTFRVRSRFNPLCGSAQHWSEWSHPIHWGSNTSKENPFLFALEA

T3: hu-IL-7Rα subunit (human, UniProt P16871 21-239, limits assumed)
T3 construct: also called human interleukin-7 receptor subunit α; CD127
T3 sequence (looked up): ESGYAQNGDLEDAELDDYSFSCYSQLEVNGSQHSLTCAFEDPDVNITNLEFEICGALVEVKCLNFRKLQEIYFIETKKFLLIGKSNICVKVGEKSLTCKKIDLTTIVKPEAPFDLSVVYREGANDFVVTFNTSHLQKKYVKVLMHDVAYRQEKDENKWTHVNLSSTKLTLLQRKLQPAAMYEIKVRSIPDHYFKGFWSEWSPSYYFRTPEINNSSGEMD


Each binder was assayed against T1, hu-IL-7Rγc subunit (assay: not given).

Row | Binder | IC50
1 | LALRKEVVCQEYYGVELCWI (not fully specified (bridges); cysteine pairing not given here, also called Rγc ligand) [SEQ ID NO 250] | < 100 µM
2 | VTCQEYEGVELCWTVGCAYS (not fully specified (bridges); cysteine pairing not given here, also called Rγc ligand) [SEQ ID NO 307] | < 100 µM
3 | WSKKAEVVCEEWGGVEFCWI (not fully specified (bridges); cysteine pairing not given here, also called Rγc ligand) [SEQ ID NO 281] | < 100 µM
4 | IECEEWAGVELCWL (not fully specified (bridges); cysteine pairing not given here, also called Rγc ligand) [SEQ ID NO 276] | < 100 µM
5 | VVCQEWEGVELCWC (not fully specified (bridges); cysteine pairing not given here, also called Rγc ligand) [SEQ ID NO 270] | < 100 µM
6 | EGSTTTIECEEWAGVELCWL (not fully specified (bridges); cysteine pairing not given here, also called Rγc ligand) [SEQ ID NO 273] | < 100 µM
7 | VVCQEWEGVELCWYAGECMQ (not fully specified (bridges); cysteine pairing not given here, also called Rγc ligand) [SEQ ID NO 283] | < 100 µM
8 | RLLNSVVECLDWEGVELCWQ (not fully specified (bridges); cysteine pairing not given here, also called Rγc ligand) [SEQ ID NO 268] | < 100 µM
9 | KPVVVCEEWQGVELCWLEIQ (not fully specified (bridges); cysteine pairing not given here, also called Rγc ligand) [SEQ ID NO 301] | < 100 µM
10 | FAHHGVVECQEWYGVELCWQ (not fully specified (bridges); cysteine pairing not given here, also called Rγc ligand) [SEQ ID NO 279] | < 100 µM
11 | RSNQTVVECQDWEGVELCWQ (not fully specified (bridges); cysteine pairing not given here, also called Rγc ligand) [SEQ ID NO 282] | < 100 µM
12 | YSRELYVQCEDWEGVELCWI (not fully specified (bridges); cysteine pairing not given here, also called Rγc ligand) [SEQ ID NO 260] | < 100 µM
13 | VVCQEWEGVELCWVEPPLLP (not fully specified (bridges); cysteine pairing not given here, also called Rγc ligand) [SEQ ID NO 295] | < 100 µM
14 | RSDDEVVVCQEWEGVELCWQ (not fully specified (bridges); cysteine pairing not given here, also called Rγc ligand) [SEQ ID NO 275] | < 100 µM
15 | KLTVECQDWDGVELCWVGVE (not fully specified (bridges); cysteine pairing not given here, also called Rγc ligand) [SEQ ID NO 293] | < 100 µM
16 | DVECVDWGGVELCWH (not fully specified (bridges); cysteine pairing not given here, also called Rγc ligand) [SEQ ID NO 255] | < 100 µM
17 | MVNREVVVCEDWYGVELCWQ (not fully specified (bridges); cysteine pairing not given here, also called Rγc ligand) [SEQ ID NO 252] | < 100 µM
18 | KKIVVCQDWGGVELCWTEDD (not fully specified (bridges); cysteine pairing not given here, also called Rγc ligand) [SEQ ID NO 317] | < 100 µM
19 | VGIECEEWAGVELCWL (not fully specified (bridges); cysteine pairing not given here, also called Rγc ligand) [SEQ ID NO 324] | < 100 µM
20 | VVCEVFQGVELCWCENEEFT (not fully specified (bridges); cysteine pairing not given here, also called Rγc ligand) [SEQ ID NO 302] | < 100 µM
21 | KTTVACQDWGGVELCWVERV (not fully specified (bridges); cysteine pairing not given here, also called Rγc ligand) [SEQ ID NO 298] | < 100 µM
22 | ILCQEFEGVELCWLEESLAE (not fully specified (bridges); cysteine pairing not given here, also called Rγc ligand) [SEQ ID NO 284] | < 100 µM
23 | AHSRQEVVCEEWYGVELCWI (not fully specified (bridges); cysteine pairing not given here, also called Rγc ligand) [SEQ ID NO 258] | < 100 µM
24 | IECDTSYGVYICWQ (not fully specified (bridges); cysteine pairing not given here, also called Rγc ligand) [SEQ ID NO 246] | < 100 µM

Molecular target: T2, hu-IL-7Rγc subunit (human), P31785
Test: not given

Row | Binder | IC50
25 | VVCQDWEGVELCWQ (modifications not checked) [SEQ ID NO 261] | < 100 µM

The binders below were run against T3, hu-IL-7Rα subunit (assay: phage ELISA competition assay).

Row | Binder | IC50
26 | HCKHWDLESLLLCV (also called IL-7Rα ligand) [SEQ ID NO 101] | < 10 µM
27 | QCIHWDLESLLNCLRELKEP (also called IL-7Rα ligand) [SEQ ID NO 108] | < 10 µM
28 | IRSCLWQPGALHCTWWAEEEPV (also called IL-7Rα ligand) [SEQ ID NO 103] | < 10 µM
29 | HCLHWNIETLMSCVYGNFEE (also called IL-7Rα ligand) [SEQ ID NO 100] | < 10 µM
30 | IPWCLLDPGGLQCVWL (also called IL-7Rα ligand) [SEQ ID NO 104] | < 10 µM
31 | NPFRSVVPWCALDPGSLQCAWL (also called IL-7Rα ligand) [SEQ ID NO 106] | < 10 µM
32 | QCIHWDIETLLSCV (also called IL-7Rα ligand) [SEQ ID NO 107] | < 10 µM
33 | YRSGHGIPWCMLDPGGLQCSWL (also called IL-7Rα ligand) [SEQ ID NO 117] | < 10 µM
34 | VPWCMLDPGSMQCAWL (also called IL-7Rα ligand) [SEQ ID NO 113] | < 10 µM
35 | VHRIPWCTLDPGGLQCAWLRQM (also called IL-7Rα ligand) [SEQ ID NO 114] | < 10 µM
36 | KAGSWFIPWCTLDPGSLQCAFL (also called IL-7Rα ligand) [SEQ ID NO 105] | < 10 µM
37 | GWGIPWCTLDPGSLQCAWLGKH (also called IL-7Rα ligand) [SEQ ID NO 116] | < 10 µM
38 | QCVHWDLDTLFGCIREQLEL (also called IL-7Rα ligand) [SEQ ID NO 109] | < 10 µM
39 | WVTIPWCILDPGSLQCEWQTKV (also called IL-7Rα ligand) [SEQ ID NO 115] | < 10 µM
40 | SAKVLKQCLHWDLESLLSCL (also called IL-7Rα ligand) [SEQ ID NO 111] | < 10 µM
41 | RHFDDIIPWCTLDPGSLQCAYL (also called IL-7Rα ligand) [SEQ ID NO 110] | < 10 µM
42 | HLGVPWCTLDPGSIQCAWLAKH (also called IL-7Rα ligand) [SEQ ID NO 102] | < 10 µM

Molecular target: T2, hu-IL-7Rγc subunit (human), P31785
Test: phage ELISA competition assay

Row | Binder | IC50
43 | VVCQDWEGVELCWQ (modifications not checked) [SEQ ID NO 261] | < 100 µM
44 | GGVVCQDWEGVELCWQ (modifications not checked) [SEQ ID NO 326] | < 100 µM
45 | VVCQDWEGVELCWQGG (modifications not checked) [SEQ ID NO 325] | < 100 µM

These binders were tested against T1, hu-IL-7Rγc subunit (assay: not stated; binding to the specific binding site on the IL-7Rγc subunit).

Row | Binder | IC50
46 | RTCTEWENVVLCWV (also called Rγc ligand) [SEQ ID NO 462] | < 10 µM
47 | CPSMLQGPERTWVC (also called Rγc ligand) [SEQ ID NO 464] | < 10 µM
48 | MCWLEWGEWVGSCL (also called Rγc ligand) [SEQ ID NO 463] | < 10 µM
